Measurements: patent publication US10233249B2, “Antibodies and methods for treating estrogen receptor-associated diseases” (BEIJING SHENOGEN PHARMA GROUP LTD., priority 2013, dated 2019)
“Also recorded” adds a separate entry of the source.

Columns and labels:
ER-α36 [1] = biological target: T1, ER-α36 (Homo sapiens, UniProt P03372); assay: Biacore binding affinity of chimeric and humanized antibodies (Example 9)
T1 sequence (P03372 284-310 isoform P03372-4): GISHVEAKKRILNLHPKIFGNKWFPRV
Description: The humanized antibodies were purified and characterized using ELISA and Biacore for binding analysis.
The humanized antibodies were tested for their binding affinity to ER-α36.

ER-α36 [2] = biological target: T1, ER-α36; assay: ELISA binding specificity of SNGmB1; parameters: made in house; host or cells: E. coli BL21 (DE3); settings: plate coated at 1 μg/ml, antibody 0.004-10 μg/ml
Description: (§1) The binding specificity of SNGmB1 was assessed using ELISA assay. Five different proteins were used to coat the assay plate at 1 μg/ml. After extensive blocking, the SNGmB1 antibody of different concentrations (10, 2, 0.4, 0.08 and 0.016, 0.004 μg/ml) was added to the assay plate and incubated for 1.5 hours, followed by detection of complex formation using HRP (horse radish peroxidase) labeled anti-mouse IgG Fc (Invitrogen). An example of the data was shown below in FIG. 3. […] The key epitope residues in ER-α36 F domain for SNGmB1 binding have been mapped using both PepScan and Alanine Scan (see Example 5).

ER-α36 [3] = biological target: T2, ER-α36 (Homo sapiens, UniProt P03372, I452L); assay: ELISA binding specificity of SNGmB1; settings: plate coated at 1 μg/ml, antibody 0.004-10 μg/ml
T2 construct: made in house; host or cells: E. coli BL21 (DE3)
T2 sequence (P03372 166-310 isoform P03372-4 I279L): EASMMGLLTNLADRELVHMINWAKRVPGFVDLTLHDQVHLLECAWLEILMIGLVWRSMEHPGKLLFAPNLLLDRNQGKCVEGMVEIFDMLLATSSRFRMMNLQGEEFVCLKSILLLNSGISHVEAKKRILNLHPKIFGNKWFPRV
Description: as §1

[4] = tested on: 4T1-ER-α36 positive cells; assay: 4T1-ER-α36 lung tumor metastasis model; assay type: in vivo, nude mice
Description: FACS-sorted 4T1-ER-α36 positive cells (ATCC) (5*10^4) were injected in the nude mice via tail vein. Average 20 mg/kg body SNGmB1 or control IgG (20 mg/kg body weight) was administered by tail vein injection every 3 or 4 days for 18 days, and tamoxifen (1 mg/kg body weight) was intragastric administrated synchronously. […] Representative immunohistochemical images showing ALDH1 in lung metastatic foci with tamoxifen administrated tumor-bearing nude mice respectively after control IgG and SNGmB1 antibody treatment. Hematoxylin was used for counterstaining. Seen from FIG. 26a and FIG. 26b, it is illustrated that ALDH1 is decreased after SNGmB1 injection. scale bars 50 μm.

[5] = biological target: T3, ER-α36 protein in human tumor tissues (Homo sapiens, UniProt P03372); assay: Immunohistochemistry (IHC) of human tissue samples; settings: paraffin tissue of breast cancer patients
T3 construct: from tissue; host or cells: paraffin sections of breast cancer patients' tissue
T3 sequence (P03372 1-310 isoform P03372-4): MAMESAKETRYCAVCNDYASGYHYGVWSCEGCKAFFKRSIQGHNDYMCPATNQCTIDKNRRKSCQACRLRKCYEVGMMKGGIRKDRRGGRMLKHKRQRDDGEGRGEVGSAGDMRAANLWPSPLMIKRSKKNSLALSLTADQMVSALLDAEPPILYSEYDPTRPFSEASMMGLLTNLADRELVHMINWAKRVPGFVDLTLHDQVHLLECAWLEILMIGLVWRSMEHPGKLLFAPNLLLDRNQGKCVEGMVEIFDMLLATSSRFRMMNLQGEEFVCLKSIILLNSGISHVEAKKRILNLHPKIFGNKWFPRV
Description: Immunohistochemistry (IHC) assay was used to evaluate the ability of utilizing a specific antibody like SNGmB1 to better detect the presence of ER-α36 in human tissue samples. 4 μm thick paraffin tissue blocks of breast cancer patients were de-paraffinized by immersing in the xylene for twenty minutes twice, followed by rehydrating sequentially in 99%, 90%, 85%, 75%, 50% ethanol for 5 minutes each. The tissue sections were then washed three times with PBS. Antigen retrieval was then performed by heating in 95° C. citrate (pH 6.0) buffer for 15 minutes in microwave. Once cooled to room temperature, the sections were then washed with PBS three times, and incubated with 3% hydrogen peroxide for 20 minutes at room temperature, followed by washing with PBS. […] Upon washing with PBS five times, pre-diluted secondary antibody (ZSGB-Bio, Cat# PV-6000) was added and incubated for 20 minutes at room temperature. The sections were then washed with PBS and incubated with DAB solution for 2-5 minutes, followed by rinsing in distilled water for 5-10 minutes. The sections were then counter-stained in hematoxylin (ZSGB-BIO, Cat# ZLI-9609), followed by rinsing sequentially in 50%, 75%, 85%, 90% and 99% A ethanol to dehydrate. The sections were then cleared in xylene and sealed with neutral balsam before evaluated with microscope.

[6] = tested on: MCF7 mammosphere formation; assay: Estradiol stimulated MCF7 mammosphere formation assay; assay type: cell-based, human
Description: The impact of antibody on the formation and growth of cells was evaluated by Estradiol stimulated MCF7 mammosphere formation assay.
MCF-7 (ATCC) maintained in DMEM medium containing 10% FBS (Gibco) have been passaged 2-3 times prior to assay and are 60% confluence. MCF-7 cells were washed with warm phenol red-free DMEM twice and then grew in phenol red-free DMEM with 2.5% charcoal stripped FBS (CFBS) for 48 hours. The cells were then trypsinized and passed through 40-μm filters to remove cell clumps, followed by stained with 7-AAD and 800 cells were plated into each well of ultra-low binding 24 well plates (Corning Inc.) in 800 μl mammosphere growth medium consisting of serum free DMEM-F12 (Gibco) supplemented with 5 μg/ml insulin, 0.4% bovine serum albumin (Sigma), B27 (Invitrogen), 20 ng/ml EGF and bFGF (BDBiosciences). For the evaluation of antibody activity, 1 nM estradiol in DMSO was added to each well to induce mammosphere formation after adding of antibodies.
MCF7 cells were grown in the presence of 1 nM estradiol and PBS, human IgG, mouse IgG2b, recombinant ER-α36 ligand binding domain Fc fusion protein, or SNGmB1. DMSO was used as negative control. After 72 hr treatment, the number of mammosphere in culture was counted. […]
The antibody activity was also evaluated in a longer term of 7 days by following methods: MCF7 mammosphere was prepared using same method described above. […]

B1: SNGmB1: mouse monoclonal anti-ER-α36 antibody (mIgG2b), light chain SEQ ID NO: 16, heavy chain SEQ ID NO: 18 (antibody, listed as Mus musculus)
heavy: QAYLQQSGAELVRPGASVKMSCKASGYTFTSHNMHWIKQTPRQGLEWIGAIHPVNGDTAYNQKFKGKATLTVDKSSSTAYLQLSSLTSEESAVYFCAREGYGSVDYWGQGTTLTVSSAKTTPPSVYPLAPGCGDTTGSSVTLGCLVKGYFPESVTVTWNSGSLSSSVHTFPALLQSGLYTMSSSVTVPSSTWPSQTVTCSVAHPASSTTVDKKLEPSGPISTINPCPPCKECHKCPAPNLEGGPSVFIFPPNIKDVLMISLTPKVTCVVVDVSEDDPDVQISWFVNNVEVHTAQTQTHREDYNSTIRVVSTLPIQHQDWMSGKEFKCKVNNKDLPSPIERTISKIKGLVRAPQVYILPPPAEQLSRKDVSLTCLVVGFNPGDISVEWTSNGHTEENYKDTAPVLDSDGSYFIYSKLNMKTSKWEKTDSFSCNVRHEGLKNYYLKKTISRSPGK
light: ETTVTQSPASLSMTIGEKVTIRCITSTDIDDDMNWYRKKPGQPPKLLISEGNTLRPGVPSRFSSSGYGTDFVFTIENMLSEDVADYYCLQSDNLPLTFGAGTKLELKRADAAPTVSIFPPSSEQLTSGGASVVCFLNNFYPKDINVKWKIDGSERQNGVLNSWTDQDSKDSTYSMSSTLTLTKDEYERHNSYTCEATHKTSTSPIVKSFNRNEC
Ka (ER-α36 [1]; listed as SNGmB1-20110709(IgG2b)): 2.12e+06 M⁻¹ s⁻¹
Ka (ER-α36 [1]; listed as SNGmB1-20111117(IgG2b)): 1.76e+06 M⁻¹ s⁻¹
binding to 27-amino acid peptide derived from the F domain of ER-α36 ("peptide") (ER-α36 [2]): bind to
binding to Fc-LBD protein (ER-α36 [3]): bind to
metastasis of lung tumor ([4]; nude mice, 20 mg/kg by tail vein every 3 or 4 days for 18 days, with tamoxifen 1 mg/kg): prevents the metastasis of lung tumor
ALDH1 in lung metastatic foci (immunohistochemistry) ([4]; tamoxifen administrated tumor-bearing nude mice, versus control IgG): decreased
detection of ER-α36 protein expression in human tumor tissues [5]: detected both membrane bound and cytoplasmic expression
inhibition of estradiol stimulated MCF7 mammosphere formation ([6]; 1 nM estradiol, 72 hr treatment, compared with human IgG and mouse IgG2b): significantly inhibited; also recorded: can inhibit on MCF7 mammosphere formation and growth
inhibition of MCF7 mammosphere formation, longer term ([6]; 7 days, estradiol 100 μM or 3 nM, different antibody concentrations, compared with mIgG): better ability in inhibiting mammosphere formation compared with mIgG; also recorded: can inhibit on MCF7 mammosphere formation and growth at different concentrations
